The values below are quoted from earlier work in patent US10753947B2, “Methods for screening voltage-gated proteins” (D.E. Shaw Research, LLC, priority 2012, dated 2020).

One may read the IC50 as the concentration at which inhibition is half-maximal.

One data set addresses Kv1.3 (Homo sapiens, UniProt P22001). The note with it: cited from earlier work.
Another data set concerns the target Kv1.1 (Homo sapiens, UniProt Q09470). The settings on record: Table 5; read-out: IC50, channel Kv1.1; cited from earlier work.
For a further data set, the target named is Shaker (Drosophila melanogaster, UniProt P08510, DUP563-563/L584V/Q583H). The note with it: Table 5; read-out: IC50, channel Shaker; cited from earlier work.
In data set [1] the target is T1, Kv2.1 T359S K360G A366D S367A I383M Y384T K386V (Homo sapiens, UniProt Q14721, A366D/I383M/K360G/K386V/S367A/T359S/Y384T).
T1 sequence (Q14721 1-858 T359S/K360G/A366D/S367A/I383M/Y384T/K386V): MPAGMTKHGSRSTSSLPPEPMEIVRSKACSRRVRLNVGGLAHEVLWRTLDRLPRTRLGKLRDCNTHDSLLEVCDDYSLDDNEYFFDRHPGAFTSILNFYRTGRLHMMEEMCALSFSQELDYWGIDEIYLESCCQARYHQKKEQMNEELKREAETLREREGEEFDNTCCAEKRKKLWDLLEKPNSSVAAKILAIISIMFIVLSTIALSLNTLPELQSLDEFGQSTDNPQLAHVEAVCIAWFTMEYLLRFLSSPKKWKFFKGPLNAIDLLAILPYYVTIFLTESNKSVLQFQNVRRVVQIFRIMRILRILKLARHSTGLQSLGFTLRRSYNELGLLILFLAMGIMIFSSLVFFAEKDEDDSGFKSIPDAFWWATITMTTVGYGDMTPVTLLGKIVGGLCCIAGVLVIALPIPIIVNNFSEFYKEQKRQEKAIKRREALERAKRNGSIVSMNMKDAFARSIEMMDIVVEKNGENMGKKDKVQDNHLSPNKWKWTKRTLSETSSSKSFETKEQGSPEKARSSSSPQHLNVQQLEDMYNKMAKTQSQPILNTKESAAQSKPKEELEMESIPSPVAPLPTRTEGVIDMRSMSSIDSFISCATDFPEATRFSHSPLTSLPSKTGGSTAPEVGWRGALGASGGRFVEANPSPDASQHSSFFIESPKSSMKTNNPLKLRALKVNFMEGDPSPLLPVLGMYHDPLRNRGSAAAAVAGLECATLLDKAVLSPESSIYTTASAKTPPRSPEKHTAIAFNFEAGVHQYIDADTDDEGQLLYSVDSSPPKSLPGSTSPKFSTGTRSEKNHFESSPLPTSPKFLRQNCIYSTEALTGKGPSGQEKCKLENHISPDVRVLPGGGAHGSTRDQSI
The note with it: Table 5; read-out: IC50, channel Kv2.1 T359S K360G A366D S367A I383M Y384T K386V; cited from earlier work.

A further data set deals with Kv1.2 (Homo sapiens, UniProt P16389). The note with it: Table 5; result in words; cited from earlier work.
For the next data set, the target named is T2, Kv2.2 (Homo sapiens, UniProt Q92953).
T2 sequence (Q92953 1-911): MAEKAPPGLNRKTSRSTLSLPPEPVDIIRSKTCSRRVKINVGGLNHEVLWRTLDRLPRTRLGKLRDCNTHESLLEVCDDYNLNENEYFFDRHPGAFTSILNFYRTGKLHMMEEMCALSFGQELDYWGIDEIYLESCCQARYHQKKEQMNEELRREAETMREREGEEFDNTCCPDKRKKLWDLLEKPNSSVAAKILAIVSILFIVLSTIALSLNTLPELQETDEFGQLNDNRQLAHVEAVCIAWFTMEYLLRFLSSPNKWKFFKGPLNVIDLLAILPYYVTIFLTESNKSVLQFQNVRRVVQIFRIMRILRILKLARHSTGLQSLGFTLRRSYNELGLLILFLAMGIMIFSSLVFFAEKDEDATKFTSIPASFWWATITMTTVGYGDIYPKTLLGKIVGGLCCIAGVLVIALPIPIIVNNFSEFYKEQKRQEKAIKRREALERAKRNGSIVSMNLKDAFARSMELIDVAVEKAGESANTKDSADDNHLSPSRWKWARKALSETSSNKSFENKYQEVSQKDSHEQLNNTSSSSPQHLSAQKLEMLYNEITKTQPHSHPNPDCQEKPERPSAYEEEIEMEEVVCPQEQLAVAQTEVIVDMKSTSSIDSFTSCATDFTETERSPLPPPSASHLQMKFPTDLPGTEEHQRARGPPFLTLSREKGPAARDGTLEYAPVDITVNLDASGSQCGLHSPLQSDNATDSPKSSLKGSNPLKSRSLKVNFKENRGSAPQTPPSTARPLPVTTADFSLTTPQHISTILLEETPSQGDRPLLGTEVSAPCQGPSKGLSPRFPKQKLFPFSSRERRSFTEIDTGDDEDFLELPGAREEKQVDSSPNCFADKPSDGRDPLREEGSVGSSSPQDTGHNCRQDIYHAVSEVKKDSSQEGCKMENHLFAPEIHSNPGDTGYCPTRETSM
The settings on record: Table 5; read-out: IC50, channel Kv2.2; cited from earlier work.

Like-named read-outs stand apart in the source and are kept apart here.

Sequence of Kv1.3 (P22001 whole entry): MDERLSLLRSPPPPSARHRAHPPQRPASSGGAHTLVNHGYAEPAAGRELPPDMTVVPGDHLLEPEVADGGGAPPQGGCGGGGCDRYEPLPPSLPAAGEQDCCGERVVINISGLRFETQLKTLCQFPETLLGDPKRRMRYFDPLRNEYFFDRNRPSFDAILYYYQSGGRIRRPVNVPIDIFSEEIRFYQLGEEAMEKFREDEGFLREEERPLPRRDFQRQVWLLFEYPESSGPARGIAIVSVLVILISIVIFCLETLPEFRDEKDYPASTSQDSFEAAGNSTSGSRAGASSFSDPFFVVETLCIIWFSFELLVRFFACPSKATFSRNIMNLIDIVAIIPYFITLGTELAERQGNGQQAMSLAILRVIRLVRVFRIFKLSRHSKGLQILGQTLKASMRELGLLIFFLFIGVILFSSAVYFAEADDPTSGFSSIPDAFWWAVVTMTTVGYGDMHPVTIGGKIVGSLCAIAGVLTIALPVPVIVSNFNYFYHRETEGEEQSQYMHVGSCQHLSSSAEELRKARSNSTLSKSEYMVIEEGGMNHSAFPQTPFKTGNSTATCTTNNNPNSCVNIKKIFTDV
Sequence of Kv1.1 (Q09470 whole entry): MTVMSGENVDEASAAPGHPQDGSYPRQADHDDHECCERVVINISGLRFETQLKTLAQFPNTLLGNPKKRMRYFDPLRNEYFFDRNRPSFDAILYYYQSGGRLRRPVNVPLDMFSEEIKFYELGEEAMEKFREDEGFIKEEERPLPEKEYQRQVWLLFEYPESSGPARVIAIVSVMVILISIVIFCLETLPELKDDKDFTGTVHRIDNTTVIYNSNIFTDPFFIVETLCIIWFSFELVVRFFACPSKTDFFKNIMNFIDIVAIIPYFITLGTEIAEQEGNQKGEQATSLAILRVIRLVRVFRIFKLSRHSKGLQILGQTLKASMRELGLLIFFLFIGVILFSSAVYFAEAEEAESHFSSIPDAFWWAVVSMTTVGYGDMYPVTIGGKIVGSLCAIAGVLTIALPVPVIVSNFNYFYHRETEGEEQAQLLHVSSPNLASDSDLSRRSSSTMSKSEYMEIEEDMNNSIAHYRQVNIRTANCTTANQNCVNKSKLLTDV
Sequence of Shaker (P08510 with tags, fused parts or gaps DUP563-563/Q583H/L584V): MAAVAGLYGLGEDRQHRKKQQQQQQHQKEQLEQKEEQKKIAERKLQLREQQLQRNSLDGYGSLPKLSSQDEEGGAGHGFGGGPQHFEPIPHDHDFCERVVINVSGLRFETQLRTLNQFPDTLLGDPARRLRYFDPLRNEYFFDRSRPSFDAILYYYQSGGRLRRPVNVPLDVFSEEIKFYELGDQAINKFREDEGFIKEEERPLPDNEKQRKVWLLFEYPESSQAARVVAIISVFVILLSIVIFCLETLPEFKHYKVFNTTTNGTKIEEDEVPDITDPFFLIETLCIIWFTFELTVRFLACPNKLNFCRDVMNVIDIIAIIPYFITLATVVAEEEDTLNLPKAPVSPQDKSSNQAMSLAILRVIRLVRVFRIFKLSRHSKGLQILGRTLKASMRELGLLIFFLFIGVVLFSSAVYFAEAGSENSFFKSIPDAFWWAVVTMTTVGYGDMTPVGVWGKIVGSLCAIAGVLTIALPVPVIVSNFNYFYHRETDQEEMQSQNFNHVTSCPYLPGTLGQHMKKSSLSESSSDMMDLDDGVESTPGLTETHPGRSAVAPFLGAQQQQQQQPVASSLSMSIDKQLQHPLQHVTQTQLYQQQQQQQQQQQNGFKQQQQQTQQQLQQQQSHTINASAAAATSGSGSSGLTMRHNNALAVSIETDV
Sequence of Kv1.2 (P16389 whole entry): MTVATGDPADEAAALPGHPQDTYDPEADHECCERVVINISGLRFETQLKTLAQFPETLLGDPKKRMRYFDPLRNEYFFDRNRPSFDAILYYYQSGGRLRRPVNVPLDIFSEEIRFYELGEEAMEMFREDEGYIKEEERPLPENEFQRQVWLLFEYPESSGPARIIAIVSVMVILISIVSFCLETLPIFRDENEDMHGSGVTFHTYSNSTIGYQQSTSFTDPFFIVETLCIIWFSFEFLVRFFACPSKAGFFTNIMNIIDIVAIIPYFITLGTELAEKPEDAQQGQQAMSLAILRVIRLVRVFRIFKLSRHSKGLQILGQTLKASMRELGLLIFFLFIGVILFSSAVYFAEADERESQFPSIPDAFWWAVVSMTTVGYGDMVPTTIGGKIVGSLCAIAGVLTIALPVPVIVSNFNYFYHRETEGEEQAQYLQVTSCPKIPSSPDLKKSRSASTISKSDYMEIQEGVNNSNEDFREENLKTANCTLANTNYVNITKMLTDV

As for “Agitotoxin-2 (GVPINVSCTGSPQCIKPCKDAGMRFGKCMNRKCHCTPK) [AgTx2]”, the IC50 in the data set with Kv1.3 (Table 3, read-out: IC50 Values of Kv1.3 ion channel modulating agent) was 4 pM; with Kv1.3 (Table 5, read-out: IC50, channel Kv1.3), 4 pM; with Kv1.1, 44 pM; in the data set with Shaker, 640 pM; in data set [1] it was 7 pM. In the data set with Kv1.3 (text b541), the “Sensitivity of Kv1.3 to the scorpion toxin” value is on record as “sensitive”.

With “Guangxitoxin (EGECGGFWWKCGSGKPACCPKYVCSPKWGLCNFPMP) [GxTx-1E]”, the “IC50, channel Kv1.3” value with Kv1.3 (Table 5, result in words) is “No effect”. For the same substance, the “IC50, channel Kv1.2” value with Kv1.2 is listed as “No effect”. Moreover, the figures for the IC50 (with Kv2.2; in data set [1]) were 2600 pM and around 2000 pM, respectively.
